Paper PMC6910952 (Nature Communications, 2019)

Legend:
Test in all cases: pull-down; GST-yNpl4 (0.5 μM, wild type or mutant) on Glutathione Sepharose 4B beads, 1 h at room temperature with 0.5 μM yUfd1, 3 μM Cdc48 (0.5 μM hexamer) and 1 μg K48 chains in 100 μL 50 mM Tris-HCl pH 7.5, 100 mM NaCl, 10% glycerol, 0.1% Triton X-100; chains detected by anti-Ub immunoblot, proteins by Ponceau S
Details in all cases: both partners purified
GST-yNpl4 M574A = target: T1, GST-yNpl4 M574A (Saccharomyces cerevisiae, UniProt P33755 1-580, M574A)
T1 construct: Npl4 of Saccharomyces cerevisiae (yNpl4), full length; source: E. coli Rosetta (DE3) (pGEX-6P1), purified (Glutathione Sepharose FF, Resource Q); not shown: GST, N-terminal, kept
T1 sequence (looked up): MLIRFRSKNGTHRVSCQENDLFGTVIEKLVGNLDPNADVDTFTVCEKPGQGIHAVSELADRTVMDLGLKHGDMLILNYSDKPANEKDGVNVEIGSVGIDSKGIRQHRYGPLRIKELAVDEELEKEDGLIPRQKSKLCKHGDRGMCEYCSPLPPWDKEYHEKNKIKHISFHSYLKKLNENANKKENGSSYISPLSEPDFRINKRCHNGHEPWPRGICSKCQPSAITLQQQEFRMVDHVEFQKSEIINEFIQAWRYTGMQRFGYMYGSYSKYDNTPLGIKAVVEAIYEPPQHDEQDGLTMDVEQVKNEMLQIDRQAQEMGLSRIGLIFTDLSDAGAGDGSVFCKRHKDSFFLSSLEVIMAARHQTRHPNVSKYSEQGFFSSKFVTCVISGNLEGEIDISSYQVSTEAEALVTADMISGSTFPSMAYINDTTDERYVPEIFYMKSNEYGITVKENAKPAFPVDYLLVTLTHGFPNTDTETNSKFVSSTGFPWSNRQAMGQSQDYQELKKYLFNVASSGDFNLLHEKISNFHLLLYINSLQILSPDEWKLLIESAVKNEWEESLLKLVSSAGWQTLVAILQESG

GST-yNpl4 M574Q = target: T2, GST-yNpl4 M574Q (Saccharomyces cerevisiae, UniProt P33755 1-580, M574Q)
T2 construct: Npl4 of Saccharomyces cerevisiae (yNpl4), full length; source: E. coli Rosetta (DE3) (pGEX-6P1), purified (Glutathione Sepharose FF, Resource Q); not shown: GST, N-terminal, kept
T2 sequence (looked up): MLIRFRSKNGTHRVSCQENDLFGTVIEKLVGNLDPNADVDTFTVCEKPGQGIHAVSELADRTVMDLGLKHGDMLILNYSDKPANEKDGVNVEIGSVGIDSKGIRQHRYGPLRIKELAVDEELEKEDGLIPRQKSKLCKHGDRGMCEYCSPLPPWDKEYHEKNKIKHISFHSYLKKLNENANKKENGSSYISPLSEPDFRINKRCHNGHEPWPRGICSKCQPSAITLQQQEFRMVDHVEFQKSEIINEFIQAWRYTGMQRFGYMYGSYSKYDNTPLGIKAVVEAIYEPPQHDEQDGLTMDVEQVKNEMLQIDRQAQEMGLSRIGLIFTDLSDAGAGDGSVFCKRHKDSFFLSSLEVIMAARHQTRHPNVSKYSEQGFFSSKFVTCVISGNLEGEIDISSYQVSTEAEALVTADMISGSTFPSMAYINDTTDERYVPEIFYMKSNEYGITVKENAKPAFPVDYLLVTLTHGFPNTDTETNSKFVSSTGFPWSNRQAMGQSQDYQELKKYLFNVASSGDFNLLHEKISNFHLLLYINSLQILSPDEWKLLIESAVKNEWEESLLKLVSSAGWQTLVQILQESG

GST-yNpl4 T571A = target: T3, GST-yNpl4 T571A (Saccharomyces cerevisiae, UniProt P33755 1-580, T571A)
T3 construct: Npl4 of Saccharomyces cerevisiae (yNpl4), full length; source: E. coli Rosetta (DE3) (pGEX-6P1), purified (Glutathione Sepharose FF, Resource Q); not shown: GST, N-terminal, kept
T3 sequence (looked up): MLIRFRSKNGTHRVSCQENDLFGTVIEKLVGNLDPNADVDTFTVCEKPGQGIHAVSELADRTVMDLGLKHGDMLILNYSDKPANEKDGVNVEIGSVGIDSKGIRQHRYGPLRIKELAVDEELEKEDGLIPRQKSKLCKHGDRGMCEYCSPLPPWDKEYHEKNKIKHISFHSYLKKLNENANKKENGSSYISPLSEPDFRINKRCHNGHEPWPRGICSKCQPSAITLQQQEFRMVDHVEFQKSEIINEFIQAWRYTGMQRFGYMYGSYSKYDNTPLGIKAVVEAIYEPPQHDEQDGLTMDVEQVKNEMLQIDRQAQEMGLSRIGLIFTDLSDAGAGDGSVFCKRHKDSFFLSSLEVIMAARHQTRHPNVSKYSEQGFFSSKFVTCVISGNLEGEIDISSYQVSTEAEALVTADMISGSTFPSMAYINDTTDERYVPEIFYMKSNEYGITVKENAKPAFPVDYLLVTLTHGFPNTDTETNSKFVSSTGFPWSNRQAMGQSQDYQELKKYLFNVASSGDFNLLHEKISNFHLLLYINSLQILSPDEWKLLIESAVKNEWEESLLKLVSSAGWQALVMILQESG

Measured: binding result

B1: yUfd1 (full length, untagged) (natural protein, Saccharomyces cerevisiae, UniProt P53044 1-361, looked up)
chain: MFSGFSSFGGGNGFVNMPQTFEEFFRCYPIAMMNDRIRKDDANFGGKIFLPPSALSKLSMLNIRYPMLFKLTANETGRVTHGGVLEFIAEEGRVYLPQWMMETLGIQPGSLLQISSTDVPLGQFVKLEPQSVDFLDISDPKAVLENVLRNFSTLTVDDVIEISYNGKTFKIKILEVKPESSSKSICVIETDLVTDFAPPVGYVEPDYKALKAQQDKEKKNSFGKGQVLDPSVLGQGSMSTRIDYAGIANSSRNKLSKFVGQGQNISGKAPKAEPKQDIKDMKITFDGEPAKLDLPEGQLFFGFPMVLPKEDEESAAGSKSSEQNFQGQGISLRKSNKRKTKSDHDSSKSKAPKSPEVIEID
notes: Ufd1 of Saccharomyces cerevisiae (yUfd1), full length; codon-optimized synthetic cDNA; removal of GST by HRV3C is surmised; also called untagged Ufd1; source: E. coli Rosetta (DE3) (pGEX-6P1), purified
binds: all assays above
